pKd: −log10 of the molar value.
Experiments:
PCNA (Homo sapiens) = PCNA (Homo sapiens) (UniProt P12004); conditions: cited from earlier work
[1] = biological target: mutant human PCNA (surface-exposed cysteines mutated, N107C), unlabeled (human) (UniProt P12004); assay: stopped-flow FRET between Cy3-P/T DNA and Cy5-PCNA, trapping experiment with polδ; As a2, with polδ at a ratio of 1:1:1 PCNA:Cy5-PCNA:polδ. The substrates were Cy3-P/T DNA, Cy3-P/T DNA-No Flap and Cy3-P/T DNA-25 bp. The read-out is the overall amplitude of reloading over that of unloading (0.5 = all unlabeled PCNA unloaded, 1.0 = all unlabeled PCNA kept on DNA).

| A (T,Reload)/A (T,Unload) with polδ (Cy3-P/T DNA) [1] | A (T,Reload)/A (T,Unload) with polδ (Cy3-P/T DNA-25 bp) [1] | A (T,Reload)/A (T,Unload) with polδ (Cy3-P/T DNA-No Flap) [1] | Substance | pKd (PCNA (Homo sapiens)) |
| --- | --- | --- | --- | --- |
|  |  |  | RFC (from UniProt P35251) | 9.70 |
| 1 | 1 | 0.99 | wild-type human DNA polymerase δ (polδ) (complex) |  |

— publication PMC3614016
